Experimental data reported in patent US20200079861A1 (AGENUS, published 2020).

B1: pab1876 (antibody, human IgG1, V domains shown)
VH: QVQLVQSGAEVKKPGASVKVSCKGSGYTFTDYAMYWVRQAPGQGLEWIGVIRTYSGDVTYNQKFKDRATMTVDKSISTAYMELSRLRSDDTAVYYCAKSGTVRGFAYWGQGTLVTVSS
VL: DIVMTQSPDSLAVSLGERATINCKSSQSLLNSGNQKNYLTWYQQKPGQPPKLLIYWASTRESGVPDRFSGSGSGTDFTLTISSLQAEDVAVYHCQNDYSYPYTFGQGTKLEIKR
notes: also called bivalent monospecific antibody pab1876; pab1876w (same chains without light chain T109S)
B2: pab2049 (antibody, human IgG1, V domains shown)
VH: EVQLVESGGGLVQPGGSLKLSCAASGFTFSGSAMHWVRQASGKGLEWVGRIRSKANSYATAYAASVKGRFTISRDDSKNTAYLQMNSLKTEDTAVYYCTSGIYDSSGYDYWGQGTLVTVSS
VL: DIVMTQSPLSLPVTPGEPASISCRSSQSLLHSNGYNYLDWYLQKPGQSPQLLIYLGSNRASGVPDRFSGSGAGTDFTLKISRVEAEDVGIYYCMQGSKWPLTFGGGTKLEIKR
notes: also called bivalent monospecific antibody pab2049; pab2049w (same chains without light chain T109S)
B3: pab1875 (antibody, V domains shown)
VH: QVQLVQSGAEVKKPGASVKVSCKGSGYTFTDYAMYWVRQAPGQGLEWIGVIRTYSGDVTYNQKFKDRATMTVDKSISTAYMELSRLRSDDTAVYYCAKSGTVRGFAYWGQGTLVTVSS
VL: DIVMTQSPPTLSLSPGERVTLSCKSSQSLLNSGNQKNYLTWYQQKPGQAPRLLIYWASTRESGIPARFSGSGSGTDFTLTISSLQPEDFAVYHCQNDYSYPYTFGQGTKLEIK
B4: m6C8 (antibody, V domains shown)
VH: QVTLKESGPGILKPSQTLSLTCSFSGFSLSTSGMGVGWIRQPSGKGLEWLAHIWWDDDKYYNPSLKSQLTISKDTSRNQVFLKITSVDTADAATYYCARTRRYFPFAYWGQGTLVTVSS
VL: DIVMTQSQKFMSTSVGDRVSVTCKASQNVGTNVAWYQQKPGQSPKALIYSASYRYSGVPDRFTGSGSGTDFTLTINNVHSEDLAEYFCQQYNTDPLTFGAGTKLEIK
notes: Generated from the variable regions of antibody 6C8 of WO 2006/105021; also called murine antibody 6C8
B5: chimeric parental 231-32-15 antibody (antibody, V domains shown)
VH: QVQLLQSGTELVRPGVSVKISCKGSGYTFTDYAMYWVKQSHAKSLEWIGVIRTYSGDVTYNQKFKDKATMTVDKSSSIAYMELARLSSEDSAIYYCAKSGTVRGFAYWGQGTLVTVSS
VL: DIVMTQSPSSLTVTAGEKVIMSCKSSQSLLNSGNQKNYLTWYQQKPGQPPKLLIYWASTRESGVPDRFTGSGSGTDFTLTISSVQAEDLAVYHCQNDYSYPYTFGGGTKLEIK
notes: Chimeric antibody

What was measured:
human GITR (on cells) = target: T1, human GITR (on cells) (human, UniProt Q9Y5U5 26-241); test: flow cytometry on Jurkat cells expressing GITR only
T1 construct: Swiss-Prot Q9Y5U5-1 is printed; also called huGITR; wild type human GITR
T1 sequence: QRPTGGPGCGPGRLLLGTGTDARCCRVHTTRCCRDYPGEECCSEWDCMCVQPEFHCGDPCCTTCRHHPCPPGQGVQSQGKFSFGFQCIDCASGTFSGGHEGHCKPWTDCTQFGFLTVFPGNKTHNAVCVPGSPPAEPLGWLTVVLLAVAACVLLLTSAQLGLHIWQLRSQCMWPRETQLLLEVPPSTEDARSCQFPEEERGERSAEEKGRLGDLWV
Protocol: (§1) Hut102 cells (human T cell lymphoma, ATCC) were incubated for 72 hours in RPMI media, supplemented with 1 μg/ml phytohaemagglutinin (PHA) and 10% heat-inactivated FBS, at 37° C. and 5% CO₂ to induce GITR and OX40 expression. Cells ectopically expressing GITR or OX40 were generated by transduction of lentiviral vectors (EF1a promoter) into Jurkat cells. Stable clones were generated via single-cell sorting (FACS ARIA Fusion). Expression was verified by flow cytometry. For binding analysis, stable Jurkat cells or activated Hut102 cells were incubated with test antibodies (12-point dose titration, 0.01-10,000 ng/ml) diluted in FACS buffer (PBS, 2 mM EDTA, 0.5% BSA, pH 7.2) for 30 minutes at 4° C. Samples were washed two times in FACS buffer and then incubated with APC-conjugated mouse anti-human kappa detection antibody (Life Technologies, HP6062) for 30 minutes at 4° C. Samples were then washed two times and analyzed using the LSRFortessa flow cytometer (BD Biosciences). FACS plots were analyzed using a combination of FACS DIVA and WEHI Weasel software. Data were plotted with Graphpad Prism software.

[1] = target: T2, V1M/Q62P/S63G cynomolgus GITR (on 1624-5 cells) (cynomolgus, UniProt Q9Y5U5 26-241 (human entry)); test: flow cytometry on 1624-5 cells, 2 µg/ml antibody
T2 construct: V1M lies in the signal peptide; also called mutant cynomolgus GITR V1M/Q62P/S63G
T2 chain: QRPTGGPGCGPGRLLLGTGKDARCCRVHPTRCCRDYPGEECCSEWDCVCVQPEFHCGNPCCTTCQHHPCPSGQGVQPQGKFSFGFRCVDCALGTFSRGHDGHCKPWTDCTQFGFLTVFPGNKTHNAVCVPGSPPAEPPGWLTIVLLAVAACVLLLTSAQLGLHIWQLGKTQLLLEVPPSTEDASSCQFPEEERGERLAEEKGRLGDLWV
Protocol: (§2) After washing, the cells were incubated with a secondary anti-IgG antibody if necessary for detection (APC conjugated; BD Cat no. 109-136-097) diluted in 100 μl FACS buffer (PBS+2% FCS) for 20 min at 4° C. The cells were then washed and acquired using a flow cytometer (BD Biosciences). The mean fluorescence intensity (MFI) value of the tested monoclonal antibody was divided by the MFI value of the polyclonal antibody, generating an MFI ratio (monoclonal antibody/polyclonal antibody) for individual GITR alanine mutants. An average MFI ratio (“AMFI ratio”) was calculated based on the individual MFI ratios for all the mutants. […] An individual MFI ratio that is between 30% and 60% of the AMFI ratio is represented by “+/−” in FIG. 10A. An individual MFI ratio that is below 30% of the AMFI ratio is represented by “−” in FIG. 10A.
(§3) As further evidence for the binding characteristics of the anti-GITR antibodies, the binding of the antibodies to cynomolgus GITR was compared. The immature protein of cynomolgus GITR comprises the amino acid sequence of SEQ ID NO:44.

[2] = target: T3, V1M cynomolgus GITR (on 1624-5 cells) (cynomolgus, UniProt Q9Y5U5 26-241 (human entry)); test: flow cytometry on 1624-5 cells
T3 chain: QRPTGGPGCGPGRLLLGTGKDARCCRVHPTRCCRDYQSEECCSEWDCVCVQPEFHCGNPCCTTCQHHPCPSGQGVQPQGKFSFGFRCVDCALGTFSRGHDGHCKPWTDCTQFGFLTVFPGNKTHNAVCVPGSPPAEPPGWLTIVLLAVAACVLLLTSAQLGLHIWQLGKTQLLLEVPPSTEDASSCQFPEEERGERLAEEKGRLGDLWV
Protocol: as §2, §3

[3] = target: T4, GITR antigen (R&D systems, disulfide-linked homodimer; 689-GR) (human, UniProt Q9Y5U5 26-161, R-PE labeled in the suspension array assay; unlabeled and amine-coupled to the chip in SPR); test: Luminex suspension array, competitor at 20 µg/ml pre-incubated with R-PE labeled GITR antigen; captured antibody 231-32-15
T4 construct: also called R-PE labeled GITR antigen
T4 sequence (looked up): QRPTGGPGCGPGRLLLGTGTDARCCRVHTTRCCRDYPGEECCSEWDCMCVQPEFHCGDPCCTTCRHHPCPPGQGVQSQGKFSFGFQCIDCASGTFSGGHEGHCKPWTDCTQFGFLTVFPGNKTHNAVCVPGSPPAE
Protocol: (§4) The bead mixture and the antigen/antibody mixture were mixed 1:1 (20 μl from each) and incubated for one additional hour under shaking conditions (20° C., 650 rpm). Directly before the measurement, 40 μl of assay buffer was added to each well and analysis was performed using a Luminex® 200 system (Millipore) and a readout of 100 beads in 48 μl sample volume. Binding was determined using the MFI values of the non-competed control (100% binding, only assay buffer as competing compound).

[4] = target: T5, human GITR G63A mutant (on 1624-5 cells) (human, UniProt Q9Y5U5 26-241); test: flow cytometry on 1624-5 cells, 2 µg/ml antibody, MFI ratio to polyclonal antibody, mutant versus wild type
T5 chain: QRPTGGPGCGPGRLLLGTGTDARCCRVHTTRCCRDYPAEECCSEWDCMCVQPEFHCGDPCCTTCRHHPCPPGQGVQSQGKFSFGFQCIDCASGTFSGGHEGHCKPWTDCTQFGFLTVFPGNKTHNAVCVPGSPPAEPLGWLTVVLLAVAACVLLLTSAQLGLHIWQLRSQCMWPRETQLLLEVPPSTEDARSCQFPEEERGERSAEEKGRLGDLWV
Protocol: (§5) An average MFI ratio (“AMFI ratio”) was calculated based on the individual MFI ratios for all the mutants. […] An individual MFI ratio that is between 30% and 60% of the AMFI ratio is represented by “+/−” in FIG. 10A. An individual MFI ratio that is below 30% of the AMFI ratio is represented by “−” in FIG. 10A.
(§6) All the mean fluorescence intensity (MFI) values were calculated as the mean of two measurements.

human OX40 (on cells) = target: T6, human OX40 (on cells) (human, UniProt P43489 29-277); test: flow cytometry on Jurkat cells expressing OX40 only
T6 construct: also called huOX40; TNFRSF4
T6 sequence: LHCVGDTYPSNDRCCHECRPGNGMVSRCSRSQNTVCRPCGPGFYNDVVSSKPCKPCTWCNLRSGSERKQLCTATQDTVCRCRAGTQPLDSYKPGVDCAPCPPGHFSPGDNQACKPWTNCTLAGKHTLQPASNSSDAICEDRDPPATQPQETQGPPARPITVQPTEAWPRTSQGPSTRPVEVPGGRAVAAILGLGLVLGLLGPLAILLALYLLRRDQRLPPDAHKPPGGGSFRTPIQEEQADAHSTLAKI
Protocol: as §1

[5] = target: T7, human GITR D60A mutant (on 1624-5 cells) (human, UniProt Q9Y5U5 26-241); test: flow cytometry on 1624-5 cells, 2 µg/ml antibody, MFI ratio to polyclonal antibody, mutant versus wild type
T7 chain: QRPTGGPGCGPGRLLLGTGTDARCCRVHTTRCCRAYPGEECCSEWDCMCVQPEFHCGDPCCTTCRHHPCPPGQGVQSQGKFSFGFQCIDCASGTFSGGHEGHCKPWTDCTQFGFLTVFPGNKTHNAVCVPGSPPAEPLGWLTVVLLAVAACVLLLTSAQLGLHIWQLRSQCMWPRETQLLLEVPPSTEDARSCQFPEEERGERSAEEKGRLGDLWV
Protocol: as §5, §6

[6] = target: T4, GITR antigen (R&D systems, …); test: Luminex suspension array, m6C8 captured on beads, R-PE labeled GITR antigen; data not shown
Protocol: as §4

[7] = target: T4, GITR antigen (R&D systems, …); test: SPR (BIAcore), GITR antigen immobilized on the chip, antibody at 300 nM
Protocol: Flow cell 2 contained GITR antigen in low density (667 RU), medium density was assessed in flow cell 3 (1595 RU) and in flow cell 4, high density was achieved (4371 RU). In flow cell 1, ovalbumin (1289 RU, Pierce ThermoFisher 77120) was immobilized for reference. Immobilization was performed according to a standard protocol from the manufacturer (GE Healthcare) for amine coupling (activation of surface with 0.4 M EDC and 0.1 M NHS, GE Healthcare Amine coupling kit, BR-1000-50). […] Afterwards anti-GITR antibodies were run through the different surfaces at a concentration of 300 nM (45 μg/ml) for 240 seconds at 5 μl/min. […] A dissociation time of 60 seconds was included before adding the competing antibody (300 nM, 5 μl/min).

binding result [1] | binding result [2] | binding result [3] | percentage of reduction in binding relative to wild type GITR [4] | percentage of reduction in binding relative to wild type GITR [5] | other results | Binder
binds | no binding (tested: 2 µg/ml) | binds | 59% | – | binding result (human GITR (on cells)): binds | B1
– | – | – | – | – | binding result (human OX40 (on cells)): binds | B2
– | – | binds | – | – | – | B3
– | – | – | – | 10% | percentage of increase in binding relative to wild type GITR [4]: 62%; binding result [6]: binds | B4
binds | no binding (tested: 2 µg/ml) | – | 37% | 82% | binding result [7]: binds | B5
